# Test results reported in US12356911B2, “Group of UDP-glycosyltransferase for catalyzing carbohydrate chain elongation and application thereof” (GSYNBIOT (SHANGHAI) CO., LTD, priority 2017, dated 2025).
# Changes are numbered by the printed parent chain.
# B1: GT29-19: Ginseng UDP-glycosyltransferase, 442 amino acids, SEQ ID NO: 116 (protein)
# chain: MDNQEGRISIALLPFLAHGHISPFFELAKQLAKRNCNVFLCSTPINLSSIKNKDSSASIKLVELHLPSSPDLPPHYHTTNGLPSHLMVPLINAFETAGPTFSEILKTLNPDLLIYDFNPSWAPEIASSHNIPAVYFLTTAAASSSIGLHAFKNPGEKYPFPDFYDNSNNTPEPPSADNMKLLHDFIACFERSCDIILIKSFIELEGKYIDLLSTLSDKTLVPVGPLVQDPMGHNEDPKTEQIINWLDKRAESTVVFVCFGSEYFLSNEELEEVAIGLEISMVNFIWAVRLIEGEKKGVLPEGFVQRVGDRGLVVEGWAPQARILGHSSTGGFVSHCGWSSITESMKFGVPVIAMARHFDQPLNAKLAAEVGVGMEVVRDENGKYKREDIAGVIRKVVVEKSGEVIRRKARELSEKMKEIGEQLIDRAVEELVQICKKKKDEQ
# modifications: misc_feature - GT29-19; Panax ginseng
# B2: GT29-20: Ginseng UDP-glycosyltransferase, 442 amino acids, SEQ ID NO: 118 (protein)
# chain: MDNQKGRISIALLPFLAHGHISPFFELAKQLAKRNCNVFLCSTPINLSSIKDKDSSASIKLVELHLPSSPDLPPHYHTTNGLPSHLMLPLRNAFETAGPTFSEILKTLNPDLLIYDFNPSWAPEIASSHNIPAVYFLTTAAASSSIGLHAFKNPGEKYPFPDFYDNSNITPEPPSADNMKLLHDFIACFERSCDIILIKSFRELEGKYIDLLSTLSDKTLVPVGPLVQDPMGHNEDPKTEQIINWLDKRAESTVVFVCFGSEYFLSNEELEEVAIGLEISTVNFIWAVRLIEGEKKGILPEGFVQRAGDRGLVVEGWAPQARILGHSSTGGFVSHCGWSSIAESMKFGVPVIAMARHLDQPLNGKLAAEVGVGMEVVRDENGKYKREGIAEVIRKVVVEKSGEVIRRKARELSEKMKEKGEQEIDRALEELVQICKKKKDEQ
# modifications: misc_feature - GT29-20; Panax ginseng
# B3: GT29-21: Ginseng UDP-glycosyltransferase, 442 amino acids, SEQ ID NO: 120 (protein)
# chain: B2 chain with H18N, A307V, T329I
# modifications: misc_feature - GT29-21; Panax ginseng
# B4: GT29-22: Ginseng UDP-glycosyltransferase, 442 amino acids, SEQ ID NO: 122 (protein)
# chain: B2 chain with A307V, S344I
# modifications: misc_feature - GT29-22; Panax ginseng
# B5: GT29-9: Ginseng UDP-glycosyltransferase, 446 amino acids, SEQ ID NO: 18 (protein)
# chain: MDNQKGRISIVMLPFLAHGHISPFFELAKHLSKRNCNIFLCSTPINLSSIKNRISDKDSSASIKLVELHLPSSPDLPPHYHTTNGLPSHLMVPLRNAFETAAPTFSEILKTLNPDLLIYDFNPSWAPEIASSHNIPAVCFIIGGAASFSMSLHSFKNPGEKYPFLDFDDNSNITPEPPSADNMKLLLDFMTCFERSCDIILIKSFRELEGKYFDFYSTLSDKTLVPVGPLVQDPMGHNEDPKTEQFINWLDKRAESTVVFVCFGSEYFLSNEELEEVAIGLEISMVNFIWAVRLIEGEKKGVLPEGFVQRVGDRGLVVEGWAPQARILGHSSTGGFVSHCGWSSIAESMKFGVPVIAMARHLDQPLNGKLAAEVGVGMEVVRDENGKYKREDIAGVIRKVVVEKSGEVIRRKARELSEKMKEIGEQLIDRAVEELVQICKKKKDEQ
# modifications: misc_feature - GT29-9; Panax ginseng
# B6: GT29-18: Ginseng UDP-glycosyltransferase, 446 amino acids, SEQ ID NO: 26 (protein)
# chain: B5 chain with A346T, L362F, G368A, I409M, I423K, Q426E, L427E, E445A
# modifications: misc_feature - GT29-18; Panax ginseng
# B7: GT29-13: Ginseng UDP-glycosyltransferase, 446 amino acids, SEQ ID NO: 22 (protein)
# chain: B5 chain with A346T, L362F, G368A, G377V
# modifications: misc_feature - GT29-13; Panax ginseng
# B8: GT29-11: Ginseng UDP-glycosyltransferase, 446 amino acids, SEQ ID NO: 20 (protein)
# chain: MDNQKGRISIVMLPFLAHGHISPFFELAKHLSKRNCNIFLCSTPINLSSIKNRISDKDSSASIKLVELHLPSSPDLPPHYHTTNGLPSHLMVPLINAFETAGPTFSEILKTLNPDLLIYDFNPSWAPEIASSHNIPAVYFLTTAAASSSIGLHAFKNPGEKYPFPDFYDNSNNTPEPPSADNMKLLHDFIACFERSCDIILIKSFIELEGKYIDLLSTLSDKTLVPVGPLVQDPMGHNEDPKTEQIINWLDKRAESTVVFVCFGSEYFLSNEELEEVAIGLEISMVNFIWAVRLIEGEKKGVLPEGFVQRVGDRGLVVEGWAPQARILGHSSTGGFVSHCGWSSIAESMKFGVPVIAMARHLDQPLNGKLAAEVGVGMEVVRDENGKYKREGIAEVIRKVVVEKSGEVMRRKARELSEKMKEKGEEEIDRAVEELVQICKKKKDAQ
# modifications: misc_feature - GT29-11; Panax ginseng
# B9: GT29-17: Ginseng UDP-glycosyltransferase, 442 amino acids, SEQ ID NO: 24 (protein)
# chain: MDNQEGRISIALLPFLAHGHISPFFELAKQLAKRNCNVFLCSTPINLSSIKNKDSSASIKLVELHLPSSPDLPPHYHTTNGLPSHLMVPLINAFETAGPTFSEILKTLNPDLLIYDFNPSWAPEIASSHNIPAVCFIIGGAASFSMSLHSFKNPGEKYPFLDFDDNSNITPEPPSADNMKLLLDFMTCFERSCDIILIKSFRELEGKYFDFYSTLSDKTLVPVGPLVQDPMGHNEDPKTEQFINWLDKRAESTVVFVCFGSEYFLSNEELEEVAIGLEISMVNFIWAVRLIEGEKKGVLPEGFVQRVGDRGLVVEGWAPQARILGHSSTGGFVSHCGWSSITESMKFGVPVIAMARHFDQPLNAKLAAEVGVGMEVVRDENGKYKREDIAGVIRKVVVEKSGEVIRRKARELSEKMKEIGEQLIDRAVEELVQICKKKKDEQ
# modifications: misc_feature - GT29-17; Panax ginseng
# B10: GT29-7: Ginseng UDP-glycosyltransferase, 446 amino acids, SEQ ID NO: 16 (protein)
# chain: MDNQKGRISIALLPFLAHGHISPFFELAKQLAKRNCNVFLCSTPINLSSIKNRVSDKDSSASIKLVELHLPSSPDLPPHYHTTNGLPSHLMIPLRNAFDTAGPTFSEILKTLNPDLLIYDFNPSWAPEIASSHNIPAVCFIIGGAASSSMSLHSFKNPGEKYPFLDFDDNSNITPEPPSADNMKLLINFMTCFERSCDIILIKSFRELEGKYFDFFSTLSDKTLVPVGPLVQDPMGHNEDPKTEQFINWLDKRAESTVVFVCFGSECFLSNEELEEVAIGLEISMVNFIWAVRLIEGEKKGVLPEGFVQRVGDRGLVVEEWAPQARILGHSSTGGFVSHCGWNSITESMKFGVPVIAMARHFDQPLNGKLAAEVGVGMEVVRDENGKYKREGIAEVIRKVVVEKSGEVIRRKARELSEKMKEKGEQEIDRVVEELVQICKKKKDEQ
# modifications: misc_feature - GT29-7; Panax ginseng
# Experiment: In vitro transglycosylation at C-3, Rd as glycosyl acceptor, UDP-xylose as donor
# Format: biochemical
# Details: crude enzyme (E. coli lysate supernatant); TLC, FIG. 14
row,Molecule,product formation from Rd and UDP-xylose (replacement of second glucose at C-3 with xylose)
1,B1,can all catalyze the replacement of the second glucose at C-3 position of Rd with xylose
2,B2,can all catalyze the replacement of the second glucose at C-3 position of Rd with xylose
3,B3,can all catalyze the replacement of the second glucose at C-3 position of Rd with xylose
4,B4,can all catalyze the replacement of the second glucose at C-3 position of Rd with xylose

# Experiment: In vitro transglycosylation at C-3, Rh2 as glycosyl acceptor, UDP-glucose as donor
# Format: biochemical
# Details: crude enzyme (E. coli lysate supernatant); TLC, FIG. 13, FIG. 15
# Source text: Cell lysate of recombinant E. coli with empty vector pET28a was used as a control.
row,Molecule,product formation from Rh2 and UDP-glucose (Rg3)
1,B1,can all catalyze the extension of a glucosyl at the C-3 glycosyl of Rh2 to generate Rg3
2,B2,can all catalyze the extension of a glucosyl at the C-3 glycosyl of Rh2 to generate Rg3
3,B3,can all catalyze the extension of a glucosyl at the C-3 glycosyl of Rh2 to generate Rg3
4,B4,can all catalyze the extension of a glucosyl at the C-3 glycosyl of Rh2 to generate Rg3

# Experiment: In vitro transglycosylation at C-6, Rg1 as glycosyl acceptor, UDP-xylose as donor
# Format: biochemical
# Details: crude enzyme (E. coli lysate supernatant); TLC and HPLC, FIG. 7-9
row,Molecule,product formation from Rg1 and UDP-xylose (notoginsenoside R1)
1,B5,can catalyze the formation of Notoginsenoside RI
2,B6,can catalyze the formation of Notoginsenoside RI
3,B7,can catalyze the formation of Notoginsenoside RI
4,B8,can catalyze the formation of Notoginsenoside RI
5,B9,can catalyze the formation of Notoginsenoside RI
6,B10,can catalyze the formation of Notoginsenoside RI
